Tests used:
Assay type in all cases: biochemical
[1] = target: T1, CK2 (Homo sapiens, UniProt P68400); test: Millipore radiometric kinase activity assay, CK2 (h)
T1 construct: purchased Millipore (assay service)
Procedure: (§1) A commercial radiometric assay service (Millipore, Billerica, Mass.) was used to test the specificity and potency of peptides containing a coupled transduction domain and therapeutic domain, hereinafter “complete peptides”). In these assays, if the kinase is not inhibited by an inhibitor peptide, a positively charged substrate is phosphorylated with a radiolabeled phosphate group from an ATP.
In a final reaction volume of 25 μL, CK2 (h) (5-10 mU) is incubated with 20 mM HEPES pH 7.6, 0.15 M NaCl, 0.1 mM EDTA, 5 mM DTT, 0.1% Triton X-100, 165 μM […] [SEQ ID NO: 55], 10 mM MgAcetate and [γ-^33P-ATP] (specific activity approx. 500 cpm/pmol, concentration as required). The reaction is initiated by the addition of the MgATP mix. After incubation for 40 minutes at room temperature, the reaction is stopped by the addition of 5 μL of a 3% phosphoric acid solution. 10 μL of the reaction is then spotted onto a P30 filtermat and washed three times for 5 minutes in 75 mM phosphoric acid and once in methanol prior to drying and scintillation counting.
(§2) IC50 values for inhibitor peptides were determined using Millipore's IC50Profiler Express service. The IC50 value was estimated from a 10-point curve of one-half log dilutions. For peptides tested for specificity, the concentration of the peptides that inhibited approximately 95% of MK2 activity was chosen to profile against a battery of kinases related to MK2, cell viability, or human disease from MilliporeKinaseProfiler service. In both assays, compounds were supplied in dimethylsulfoxide (DMSO). Every kinase activity measurement was conducted in duplicate.
(§3) Therapeutic inhibitor peptides were assayed for activity against human kinases related to MK2, cell viability, or human disease. The assays were performed using concentrations of therapeutic inhibitor peptides that yielded 2% to 8% of normal MK2 activity. Error is reported as the standard deviation between 2 samples, and “c” is rat AMPK whereas all other kinases used are human kinases.

[2] = target: T2, DYRK2 (Homo sapiens, UniProt Q92630); test: Millipore radiometric kinase activity assay, DYRK2 (h)
T2 construct: purchased Millipore (assay service)
T2 sequence (Q92630 1-601): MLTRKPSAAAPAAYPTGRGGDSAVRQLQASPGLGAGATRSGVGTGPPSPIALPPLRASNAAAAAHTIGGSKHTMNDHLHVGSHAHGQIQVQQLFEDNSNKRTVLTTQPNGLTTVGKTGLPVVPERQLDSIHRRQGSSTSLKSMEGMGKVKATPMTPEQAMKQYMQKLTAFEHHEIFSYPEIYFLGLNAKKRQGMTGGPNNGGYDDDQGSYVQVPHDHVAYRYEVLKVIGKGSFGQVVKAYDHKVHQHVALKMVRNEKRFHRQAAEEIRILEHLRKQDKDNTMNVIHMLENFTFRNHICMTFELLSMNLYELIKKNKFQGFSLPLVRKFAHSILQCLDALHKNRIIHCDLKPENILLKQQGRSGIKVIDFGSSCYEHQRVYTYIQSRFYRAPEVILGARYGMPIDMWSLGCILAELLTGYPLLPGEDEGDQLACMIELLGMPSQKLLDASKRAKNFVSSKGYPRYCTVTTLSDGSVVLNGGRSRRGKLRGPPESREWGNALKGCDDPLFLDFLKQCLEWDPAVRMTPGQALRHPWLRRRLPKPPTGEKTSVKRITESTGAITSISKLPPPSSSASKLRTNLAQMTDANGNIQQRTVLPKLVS
Procedure: as §1
(§4) In a final reaction volume of 25 μL, DYRK2 (h) (5-10 mU) is incubated with 8 mM MOPS pH 7.0, 0.2 mM EDTA, 2 mg/mL casein, 10 mM MgAcetate and [γ-^33P-ATP] (specific activity approx. 500 cpm/pmol, concentration as required). The reaction is initiated by the addition of the MgATP mix. After incubation for 40 minutes at room temperature, the reaction is stopped by the addition of 5 μL, of a 3% phosphoric acid solution. 10 μL of the reaction is then spotted onto a P30 filtermat and washed three times for 5 minutes in 75 mM phosphoric acid and once in methanol prior to drying and scintillation counting.
as §2, §3

[3] = target: T3, EphA2 (Homo sapiens, UniProt P29317); test: Millipore radiometric kinase activity assay, EphA2 (h)
T3 construct: purchased Millipore (assay service)
T3 sequence (P29317 24-976): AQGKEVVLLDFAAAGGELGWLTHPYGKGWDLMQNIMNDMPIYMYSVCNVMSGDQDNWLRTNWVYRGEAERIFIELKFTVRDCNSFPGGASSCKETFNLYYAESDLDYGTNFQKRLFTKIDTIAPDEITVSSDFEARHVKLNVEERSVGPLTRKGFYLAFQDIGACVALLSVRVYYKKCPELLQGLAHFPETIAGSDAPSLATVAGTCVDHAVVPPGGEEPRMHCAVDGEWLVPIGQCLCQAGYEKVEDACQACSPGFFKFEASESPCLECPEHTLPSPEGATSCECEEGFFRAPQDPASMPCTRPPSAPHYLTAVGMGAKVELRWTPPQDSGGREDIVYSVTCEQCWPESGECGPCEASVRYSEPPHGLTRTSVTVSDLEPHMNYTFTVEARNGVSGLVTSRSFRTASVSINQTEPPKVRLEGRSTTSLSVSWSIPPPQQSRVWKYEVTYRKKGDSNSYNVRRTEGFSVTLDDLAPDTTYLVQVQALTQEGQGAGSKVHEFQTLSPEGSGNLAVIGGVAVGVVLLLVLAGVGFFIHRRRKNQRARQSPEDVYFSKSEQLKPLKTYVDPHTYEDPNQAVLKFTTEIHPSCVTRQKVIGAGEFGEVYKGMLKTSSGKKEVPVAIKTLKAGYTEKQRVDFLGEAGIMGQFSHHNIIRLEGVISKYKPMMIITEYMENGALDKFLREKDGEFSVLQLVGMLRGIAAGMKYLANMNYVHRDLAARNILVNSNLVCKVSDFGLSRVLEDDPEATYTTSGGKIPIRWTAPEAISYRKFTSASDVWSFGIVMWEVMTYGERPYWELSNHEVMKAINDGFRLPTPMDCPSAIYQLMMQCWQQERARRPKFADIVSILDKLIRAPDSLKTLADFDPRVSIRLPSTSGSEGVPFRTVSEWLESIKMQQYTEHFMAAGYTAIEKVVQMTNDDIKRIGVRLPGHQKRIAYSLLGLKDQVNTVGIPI
Procedure: as §1
In a final reaction volume of 25 μL, EphA2 (h) (5-10 mU) is incubated with 8 mM MOPS pH 7.0, 0.2 mM EDTA, 0.1 mg/mL poly(Glu, Tyr) 4:1, 10 mM MgAcetate and [γ-^33P-ATP] (specific activity approx. 500 cpm/pmol, concentration as required). The reaction is initiated by the addition of the MgATP mix. After incubation for 40 minutes at room temperature, the reaction is stopped by the addition of 5 μL of a 3% phosphoric acid solution. 10 μL of the reaction is then spotted onto a Filtermat A and washed three times for 5 minutes in 75 mM phosphoric acid and once in methanol prior to drying and scintillation counting.
as §2, §3

[4] = target: T4, PKA (Homo sapiens, UniProt P17612); test: Millipore radiometric kinase activity assay, PKA (h)
T4 construct: purchased Millipore (radiometric assay service)
Procedure: as §1
as §4, with “25 μL, PKA (h) (5-10” for “25 μL, DYRK2 (h) (5-10”, “mM EDTA, 30 μM LRRASLG [SEQ ID NO: 50] (Kemptide), 10 mM” for “mM EDTA, 2 mg/mL casein, 10 mM”, “of 5 μL of a” for “of 5 μL, of a”, “phosphoric acid solution, 10 μL” for “phosphoric acid solution. 10 μL”, “minutes in 50 mM phosphoric” for “minutes in 75 mM phosphoric”
as §2, §3

[5] = target: T5, PKCβI (Homo sapiens, UniProt P05771); test: Millipore radiometric kinase activity assay, PKCβI (h)
T5 construct: purchased Millipore (radiometric assay service)
T5 sequence (P05771 whole entry): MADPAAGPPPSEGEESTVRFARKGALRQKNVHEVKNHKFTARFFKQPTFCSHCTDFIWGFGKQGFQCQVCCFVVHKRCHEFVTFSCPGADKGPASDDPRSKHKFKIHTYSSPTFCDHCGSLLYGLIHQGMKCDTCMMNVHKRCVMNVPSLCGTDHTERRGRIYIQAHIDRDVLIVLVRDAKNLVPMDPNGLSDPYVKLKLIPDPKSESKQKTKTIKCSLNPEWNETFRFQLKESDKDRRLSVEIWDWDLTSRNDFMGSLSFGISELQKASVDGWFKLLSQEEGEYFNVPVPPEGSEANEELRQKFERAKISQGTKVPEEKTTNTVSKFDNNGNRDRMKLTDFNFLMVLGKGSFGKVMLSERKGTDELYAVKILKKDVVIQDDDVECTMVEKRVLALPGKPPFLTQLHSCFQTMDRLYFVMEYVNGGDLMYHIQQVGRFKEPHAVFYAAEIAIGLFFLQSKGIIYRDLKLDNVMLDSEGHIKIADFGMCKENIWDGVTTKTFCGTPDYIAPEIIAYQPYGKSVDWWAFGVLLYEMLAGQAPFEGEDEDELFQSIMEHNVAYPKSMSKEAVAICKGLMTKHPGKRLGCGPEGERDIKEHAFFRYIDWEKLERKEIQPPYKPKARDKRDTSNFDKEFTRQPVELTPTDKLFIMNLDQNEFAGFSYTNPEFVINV
Procedure: as §1
In a final reaction volume of 25 μL, PKCβI (h) (5-10 mU) is incubated with 20 mM HEPES pH 7.4, 0.03% Triton X-100, 0.1 mM CaCl2, 0.1 mg/mL phosphatidylserine, 10 μg/mL diacylglycerol, 0.1 mg/mL histone H1, 10 mM MgAcetate and [γ-^33P-ATP] (specific activity approx. 500 cpm/pmol, concentration as required). The reaction is initiated by the addition of the MgATP mix. After incubation for 40 minutes at room temperature, the reaction is stopped by the addition of 5 μL of a 3% phosphoric acid solution. 10 μL of the reaction is then spotted onto a P30 filtermat and washed three times for 5 minutes in 75 mM phosphoric acid and once in methanol prior to drying and scintillation counting.
as §2, §3

T1 sequence (P68400 whole entry): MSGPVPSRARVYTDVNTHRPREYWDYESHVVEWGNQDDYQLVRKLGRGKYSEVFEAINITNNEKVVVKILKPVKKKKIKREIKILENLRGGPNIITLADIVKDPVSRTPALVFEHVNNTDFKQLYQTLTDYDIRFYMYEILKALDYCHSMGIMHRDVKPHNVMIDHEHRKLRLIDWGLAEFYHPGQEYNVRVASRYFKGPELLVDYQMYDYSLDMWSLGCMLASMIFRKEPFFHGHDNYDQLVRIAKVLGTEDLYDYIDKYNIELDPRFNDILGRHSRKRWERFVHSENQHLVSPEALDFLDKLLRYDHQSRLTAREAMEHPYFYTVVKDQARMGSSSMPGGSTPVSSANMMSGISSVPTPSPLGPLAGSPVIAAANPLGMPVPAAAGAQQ
T1 sequence (P67870 whole entry partner): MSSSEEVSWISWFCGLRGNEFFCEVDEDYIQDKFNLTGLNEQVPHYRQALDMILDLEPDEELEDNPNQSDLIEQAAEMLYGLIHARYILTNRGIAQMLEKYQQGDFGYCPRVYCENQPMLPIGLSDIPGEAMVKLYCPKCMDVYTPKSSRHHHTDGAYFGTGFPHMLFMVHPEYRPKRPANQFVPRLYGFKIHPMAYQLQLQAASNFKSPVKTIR

## KAFAKLAARLYRKALARQLGVAA
[1]; peptide 100 μM
  CK2 Kinase Activity (%) (+SD %): 79 (12) %
[2]; peptide 100 μM
  DYRK2 Kinase Activity (%) (+SD %): −10 (0) %
[3]; peptide 100 μM
  EphA2 Kinase Activity (%) (+SD %): 22 (7) %
[4]; peptide 100 μM
  PKA Kinase Activity (%) (+SD %): 103 (1) %
[5]; peptide 100 μM
  PKCβ1 Kinase Activity (%) (+SD %): 23 (3) %

## WLRRIKAWLRRIKALNRQLGVAA
[1]; peptide 30 μM
  CK2 Kinase Activity (%) (+SD %): 114 (4) %
[1]; peptide 100 μM
  CK2 Kinase Activity (%) (+SD %): 80 (14) %
[2]; peptide 30 μM
  DYRK2 Kinase Activity (%) (+SD %): 93 (8) %
[2]; peptide 100 μM
  DYRK2 Kinase Activity (%) (+SD %): −11 (1) %
[3]; peptide 30 μM
  EphA2 Kinase Activity (%) (+SD %): 38 (4) %
[3]; peptide 100 μM
  EphA2 Kinase Activity (%) (+SD %): 32 (2) %
[4]; peptide 30 μM
  PKA Kinase Activity (%) (+SD %): 80 (1) %
[4]; peptide 100 μM
  PKA Kinase Activity (%) (+SD %): 76 (8) %
[5]; peptide 30 μM
  PKCβ1 Kinase Activity (%) (+SD %): 8 (4) %
[5]; peptide 100 μM
  PKCβ1 Kinase Activity (%) (+SD %): 73 (0) %

From patent US9327008B2, “Cell-permeant peptide-based inhibitor of kinases” (Purdue Research Foundation, priority 2008, dated 2016)
